Source: US20230192896A1 (published 2023)
Numbering of substitutions follows the chain as printed.

B1: BIIB-9-1276 (antibody, V domains shown)
VH: QLQLQESGPGLVKPSETLSLTCTVSGGSISSSSYYWGWIRQPPGKGLEWIGSIYYSGSTYYNPSLKSRVTISVDTSKNQFSLKLSSVTAADTAVYYCARDVGRTYELFDIWGQGTMVTVSS
VL: DIQMTQSPSSVSASVGDRVTITCRASQGISSWLAWYQQKPGKAPKLLIYAASSLQSGVPSRFSGSGSGTDFTLTISSLQPEDFATYYCQQGNSFPITFGGGTKVEIK
B2: BIIB-9-1265 (antibody, V domains shown)
VH: B1 VH with V101G, G102R, R103H, T104Y, I110Y, M116L
VL: B1 VL
B3: BIIB-9-631 (antibody, V domains shown)
VH: QVQLVQSGAEVKKPGASVKVSCKASGYTFTSYYMHWVRQAPGQGLEWMGIINPSGGSTSYAQKFQGRVTMTRDTSTSTVYMELSSLRSEDTAVYYCARAENRGDYEAWGQGTLVTVSS
VL: B1 VL with S31R, G91R, N92T, I96L
B4: BIIB-9-886 (antibody, V domains shown)
VH: QVQLVQSGAEVKKPGASVKVSCKASGYTFTSYYMHWVRQAPGQGLEWMGIINPSGGSTSYAQKFQGRVTMTRDTSTSTVYMELSSLRSEDTAVYYCARDPAHSYLDAFDIWGQGTMVTVSS
VL: B1 VL with G91A, N92S, I96F
B5: BIIB-9-567 (antibody, V domains shown)
VH: QVQLVQSGAEVKKPGASVKVSCKASGYTFTSYYMHWVRQAPGQGLEWMGIINPSGGSTSYAQKFQGRVTMTRDTSTSTVYMELSSLRSEDTAVYYCARLGRRYYAYDGMDVWGQGTTVTVSS
VL: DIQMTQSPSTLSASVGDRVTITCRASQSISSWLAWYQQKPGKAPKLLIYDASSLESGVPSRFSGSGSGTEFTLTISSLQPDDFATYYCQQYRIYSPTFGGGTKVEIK
B6: BIIB-9-628 (antibody, V domains shown)
VH: QVQLVQSGAEVKKPGASVKVSCKASGYTFTSYYMHWVRQAPGQGLEWMGIINPSGGSTSYAQKFQGRVTMTRDTSTSTVYMELSSLRSEDTAVYYCAREPIAYGATLDLWGRGTLVTVSS
VL: EIVLTQSPGTLSLSPGERATLSCRASQSVSSDYLAWYQQKPGQAPRLLIYGASSRATGIPDRFSGSGSGTDFTLTISRLEPEDFAVYYCQQYVVFPFTFGGGTKVEIK
B7: BIIB-9-451 (antibody, V domains shown)
VH: QLQLQESGPGLVKPSETLSLTCTVSGGSISSSSYYWGWIRQPPGKGLEWIGSISYSGSTYYNPSLKSRVTISVDTSKNQFSLKLSSVTAADTAVYYCARDSGGYYYQGFDYWGQGTLVTVSS
VL: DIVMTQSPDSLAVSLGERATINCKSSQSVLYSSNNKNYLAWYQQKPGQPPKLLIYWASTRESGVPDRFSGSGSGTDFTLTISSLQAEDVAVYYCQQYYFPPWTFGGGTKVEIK
B8: BIIB-9-1287 (antibody, V domains shown)
VH: QLQLQESGPGLVKPSETLSLTCTVSGGSISSSDYYWGWIRQPPGKGLEWIGSIYYSGSTYYNPSLKSRVTISVDTSKNQFSLKLSSVTAADTAVYYCARSPRHKVRGPNWFDPWGQGTLVTVSS
VL: EIVLTQSPGTLSLSPGERATLSCRASQSVSSSYLAWYQQKPGQAPRLLIYGASSRATGIPDRFSGSGSGTDFTLTISRLEPEDFAVYYCQQYHLHPTFGGGTKVEIK
B9: BIIB-9-472 (antibody, V domains shown)
VH: EVQLVESGGGLVKPGGSLRLSCAASGFTFSSYSMNWVRQAPGKGLEWVSSISSSSSYIYYADSVKGRFTISRDNAKNSLYLQMNSLRAEDTAVYYCARGGRYSGSWSWNIWGQGTMVTVSS
VL: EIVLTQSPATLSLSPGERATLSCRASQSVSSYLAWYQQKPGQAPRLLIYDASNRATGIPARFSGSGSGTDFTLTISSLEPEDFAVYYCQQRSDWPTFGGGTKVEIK
B10: BIIB-9-471 (antibody, V domains shown)
VH: QVQLQESGPGLVKPSQTLSLTCTVSGGSISSGGYYWSWIRQHPGKGLEWIGYIYYSGSTYYNPSLKSRVTISVDTSKNQFSLKLSSVTAADTAVYYCARSGVSGSGSDNWFDPWGQGTTVTVSS
VL: EIVLTQSPATLSLSPGERATLSCRASQSVSRYLAWYQQKPGQAPRLLIYDASNRATGIPARFSGSGSGTDFTLTISSLEPEDFAVYYCQQDYNYPFTFGGGTKVEIK
B11: BIIB-9-1266 (antibody, V domains shown)
VH: QVQLVQSGAEVKKPGASVKVSCKASGYTFTSYYMHWVRQAPGQGLEWMGIINPSGGSTSYAQKFQGRVTMTRDTSTSTVYMELSSLRSEDTAVYYCARDHGWAIYGMDVWGQGTTVTVSS
VL: B10 VL with L4M, R31S, A51S, D91R, Y92L, Y94F
B12: BIIB-9-619 (antibody, V domains shown)
VH: QVQLVQSGAEVKKPGASVKVSCKASGYTFTSYYMHWVRQAPGQGLEWMGIINPSGGSTSYAQKFQGRVTMTRDTSTSTVYMELSSLRSEDTAVYYCARDGPRVSDYYMDVWGKGTTVTVSS
VL: B10 VL with R31S, D91R, Y92D, Y94W
B13: BIIB-9-416 (antibody, V domains shown)
VH: QVQLVQSGAEVKKPGASVKVSCKASGYTFTSYYMHWVRQAPGQGLEWMGIINPSGGSTSYAQKFQGRVTMTRDTSTSTVYMELSSLRSEDTAVYYCAREGPMLDYPTYSNWFDPWGQGTLVTVS
VL: B10 VL with L4M, R31S, A51S, D91R, Y92V, N93V, Y94W, F96P
B14: BIIB-9-565 (antibody, V domains shown)
VH: QLQLQESGPGLVKPSETLSLTCTVSGGSISSSSYYWGWIRQPPGKGLEWIGSIYYSGSTYYNPSLKSRVTISVDTSKNQFSLKLSSVTAADTAVYYCARAGMYSSYANWFDPWGQGTLVTVSS
VL: B10 VL with R31S, Y92S, Y94L
B15: BIIB-9-1268 (antibody, V domains shown)
VH: QVQLVQSGAEVKKPGASVKVSCKASGYTFTSYYMHWVRQAPGQGLEWMGIINPSGGSTSYAQKFQGRVTMTRDTSTSTVYMELSSLRSEDTAVYYCARDPPSWYVFDIWGQGTMVTVSS
VL: B10 VL with L4M, R31S, D91A, Y92T, N93V, Y94W
B16: BIIB-9-612 (antibody, V domains shown)
VH: B11 VH with H100A, W102Y, A103H, I104W
VL: B10 VL with D91S, Y92S, N93L, Y94F, F96L
B17: BIIB-9-473 (antibody, V domains shown)
VH: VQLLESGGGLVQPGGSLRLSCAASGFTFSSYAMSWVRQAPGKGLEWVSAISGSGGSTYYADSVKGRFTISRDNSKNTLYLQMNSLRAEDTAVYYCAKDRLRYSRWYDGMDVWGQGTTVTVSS
VL: B10 VL with R31S, D91R, Y92S, N93F, Y94L, F96Y
B18: BIIB-9-608 (antibody, V domains shown)
VH: QLQLQESGPGLVKPSETLSLTCTVSGGSISSSSYYWGWIRQPPGKGLEWIGSIYYSGSTYYNPSLKSRVTISVDTSKNQFSLKLSSVTAADTAVYYCARDRLETSEAGMDVWGQGTTVTVSS
VL: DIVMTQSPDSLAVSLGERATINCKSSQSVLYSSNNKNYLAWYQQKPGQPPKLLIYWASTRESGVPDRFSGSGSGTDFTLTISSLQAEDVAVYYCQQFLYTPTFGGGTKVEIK
B19: BIIB-9-622 (antibody, V domains shown)
VH: QVQLVQSGAEVKKPGASVKVSCKASGYTFTSYYMHWVRQAPGQGLEWMGIINPSGGSTSYAQKFQGRVTMTRDTSTSTVYMELSSLRSEDTAVYYCARDGATTVSYLSFDIWGQGTMVTVSS
VL: EIVMTQSPATLSVSPGERATLSCRASQSVSSSLAWYQQKPGQAPRLLIYGASTRATGIPARFSGSGSGTEFTLTISSLQSEDFAVYYCQQHSTWPPTFGGGTKVEIK
B20: BIIB-9-1286 (antibody, V domains shown)
VH: B19 VH with H35V, D99V, G100P, A101T, T102Y, T103R, V104Y, S108A
VL: B1 VL with A84V, G91A, N92S, I96P
B21: BIIB-9-1285 (antibody, V domains shown)
VH: B19 VH with H35V, D99V, G100P, A101T, T102Y, T103R, V104Y, S108A
VL: B19 VL with S32N, H91A, T93N, W94F
B22: BIIB-9-1277 (antibody, V domains shown)
VH: QVQLVQSGAEVKKPGASVKVSCKASGYTFTSYYMHWVRQAPGQGLEWMGIINPSGGSTSYAQKFQGRVTMTRDTSTSTVYMELSSLRSEDTAVYYCARGGTGYYYGSGSRDGYHYYYGMDVWGQGTTVTVSS
VL: B10 VL with L4M, L13V, R31S, F83L, D91S, Y92A, Y94W, F96P
B23: BIIB-9-477 (antibody, V domains shown)
VH: EVQLLESGGGLVQPGGSLRLSCAASGFTFSNYAMSWVRQAPGKGLEWVSAISGSGGSTYYADSVKGRFTISRDNSKNTLYLQMNSLRAEDTAVYYCARGGVYSSSWMRFWGQGTLVTVSS
VL: B19 VL with Y49F, H91D, S92V, T93N, P96I
B24: BIIB-9-588 (antibody, V domains shown)
VH: QVQLVQSGAEVKKPGASVKVSCKASGYTFTSYYMHWVRQAPGQGLEWMGIINPSGGSTTYAQKFQGRVTMTRDTSTSTVYMELSSLRSEDTAVYYCARDGGGSYDYWSGYWYDVWGQGTTVTVSS
VL: B19 VL with S32N, H91A, S92Y, T93N, P96F
B25: BIIB-9-558 (antibody, V domains shown)
VH: EVQLVESGGGLVKPGGSLRLSCAASGFTFSSYSMNWVRQAPGKGLEWVSSISSSSSYIYYADSVKGRFTISRDNAKNSLYLQMNSLRAEDTAVYYCARSYGYGYHDFDLWGRGTLVTVSS
VL: DIQMTQSPSTLSASVGDRVTITCRASQSIGSWLAWYQQKPGKAPKLLIYKASSLESGVPSRFSGSGSGTEFTLTISSLQPDDFATYYCQQAGSYSFTFGGGTKVEIK

Target: free FIXa (activated Factor IX) (UniProt P00740 47-191; P00740 227-461)
Assay: BLI

| Binder | Kd [nM] |
| --- | --- |
| B1 | 32.4 |
| B2 | 59.8 |
| B3 | 61.2 |
| B4 | 30.8 |
| B5 | 20.6 |
| B6 | 108 |
| B7 | 8.76 |
| B8 | 0.669 |
| B9 | 8.99 |
| B10 | 9.11 |
| B11 | 42.6 |
| B12 | 11.9 |
| B13 | 2.98 |
| B14 | 15.8 |
| B15 | 51.5 |
| B16 | 14 |
| B17 | 17.2 |
| B18 | 11.4 |
| B19 | 18 |
| B20 | 31.8 |
| B21 | 60.2 |
| B22 | 58.8 |
| B23 | 8.63 |
| B24 | 16.5 |
| B25 | 1.1 |
